Assay results as given in article PMC9482650, “Quantitative fragmentomics allow affinity mapping of interactomes” (Nature Communications, 2022).

T1: DVL3, Q92997
T1 sequence (Q92997 244-331, limits assumed, looked up): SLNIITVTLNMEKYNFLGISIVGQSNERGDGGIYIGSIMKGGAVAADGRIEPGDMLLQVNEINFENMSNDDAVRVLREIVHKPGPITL

T2: NHERF3_3, Q5T2W1
T2 sequence (Q5T2W1 238-333, limits assumed, looked up): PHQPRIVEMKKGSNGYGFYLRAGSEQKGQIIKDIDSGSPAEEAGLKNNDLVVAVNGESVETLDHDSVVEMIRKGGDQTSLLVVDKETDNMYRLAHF

T3: HTRA4, P83105
T3 sequence (P83105 378-476, limits assumed, looked up): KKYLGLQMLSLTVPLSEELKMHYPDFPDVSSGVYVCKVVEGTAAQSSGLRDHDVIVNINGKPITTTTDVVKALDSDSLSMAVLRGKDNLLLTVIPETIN

T4: APBA1_2, Q02410
T4 sequence (Q02410 742-832, limits assumed, looked up): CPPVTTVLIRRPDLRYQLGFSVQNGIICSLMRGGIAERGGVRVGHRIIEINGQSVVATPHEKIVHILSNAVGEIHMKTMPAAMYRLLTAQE

T5: LNX2_2, Q8N448
T5 sequence (Q8N448 334-432, limits assumed, looked up): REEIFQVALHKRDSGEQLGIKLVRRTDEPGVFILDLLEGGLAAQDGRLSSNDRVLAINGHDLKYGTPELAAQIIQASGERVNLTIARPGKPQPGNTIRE

T6: APBA2_1, Q99767
T6 sequence (Q99767 563-664, limits assumed, looked up): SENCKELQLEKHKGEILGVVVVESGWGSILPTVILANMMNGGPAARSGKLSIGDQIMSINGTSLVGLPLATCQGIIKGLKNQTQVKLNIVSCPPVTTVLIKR

T7: GRIP1_7, Q9Y3R0
T7 sequence (Q9Y3R0 999-1096, limits assumed, looked up): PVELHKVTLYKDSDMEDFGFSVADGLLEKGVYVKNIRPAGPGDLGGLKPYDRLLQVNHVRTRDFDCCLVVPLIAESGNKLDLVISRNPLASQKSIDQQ

T8: TIAM2, Q8IVF5
T8 sequence (Q8IVF5 885-986, limits assumed, looked up): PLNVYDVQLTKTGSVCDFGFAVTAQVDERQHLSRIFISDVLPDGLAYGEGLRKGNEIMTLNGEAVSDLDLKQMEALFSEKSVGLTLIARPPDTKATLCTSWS

T9: MPDZ_12, O75970
T9 sequence (O75970 1857-1958, limits assumed, looked up): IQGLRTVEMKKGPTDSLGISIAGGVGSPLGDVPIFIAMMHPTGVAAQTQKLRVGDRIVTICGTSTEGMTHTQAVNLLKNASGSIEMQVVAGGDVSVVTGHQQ

T10: MPP2, Q14168
T10 sequence (Q14168 180-250, limits assumed, looked up): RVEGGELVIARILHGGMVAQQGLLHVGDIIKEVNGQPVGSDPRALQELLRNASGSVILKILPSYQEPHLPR

T11: MPP7, Q5T2T1
T11 sequence (Q5T2T1 134-230, limits assumed, looked up): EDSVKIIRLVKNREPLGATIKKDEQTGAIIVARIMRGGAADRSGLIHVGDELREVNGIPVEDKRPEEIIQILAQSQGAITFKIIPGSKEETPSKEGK

T12: PDZD7_3, Q9H5P4
T12 sequence (Q9H5P4 857-944, limits assumed, looked up): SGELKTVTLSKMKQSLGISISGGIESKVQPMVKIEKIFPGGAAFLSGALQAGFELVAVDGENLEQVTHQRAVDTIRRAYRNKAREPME

T13: SNTG1, Q9NSN8
T13 sequence (Q9NSN8 52-150, limits assumed, looked up): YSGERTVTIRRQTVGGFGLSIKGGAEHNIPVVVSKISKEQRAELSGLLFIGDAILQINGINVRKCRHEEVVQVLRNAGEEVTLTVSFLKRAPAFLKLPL

T14: ARHGEF11, O15085
T14 sequence (O15085 42-136, limits assumed, looked up): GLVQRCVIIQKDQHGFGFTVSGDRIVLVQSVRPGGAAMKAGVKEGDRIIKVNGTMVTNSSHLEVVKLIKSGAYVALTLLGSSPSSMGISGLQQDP


Experiments:
Experiment in all cases: holdup assay
Set-up in all cases: key: below the threshold = too weak to quantify, mostly under pKd 3.1 to 4
Conditions in all cases: plain residues with an end cap or a label only (N-terminal biotin on a linker: ado-ado)
DVL3, Q92997 = target: T1, DVL3, Q92997
HTRA2, O43464 = target: HTRA2, O43464
NHERF3_3, Q5T2W1 = target: T2, NHERF3_3, Q5T2W1
HTRA4, P83105 = target: T3, HTRA4, P83105
TJP1_2, Q07157 = target: TJP1_2, Q07157
GRIP2_3, Q9C0E4 = target: GRIP2_3, Q9C0E4
APBA1_2, Q02410 = target: T4, APBA1_2, Q02410
LNX2_2, Q8N448 = target: T5, LNX2_2, Q8N448
ARHGEF12, Q9NZN5-2 = target: ARHGEF12, Q9NZN5-2
APBA2_1, Q99767 = target: T6, APBA2_1, Q99767
LIMK2, P53671 = target: LIMK2, P53671
GRIP1_7, Q9Y3R0 = target: T7, GRIP1_7, Q9Y3R0
TIAM2, Q8IVF5 = target: T8, TIAM2, Q8IVF5
MPDZ_12, O75970 = target: T9, MPDZ_12, O75970
MPP2, Q14168 = target: T10, MPP2, Q14168
SCRIB_1, Q14160 = target: SCRIB_1, Q14160
DLG5_1, Q8TDM6 = target: DLG5_1, Q8TDM6
GOPC, Q9HD26 = target: GOPC, Q9HD26
MAST2, Q6P0Q8 = target: MAST2, Q6P0Q8
MPP7, Q5T2T1 = target: T11, MPP7, Q5T2T1
PDZD7_3, Q9H5P4 = target: T12, PDZD7_3, Q9H5P4
SNTG1, Q9NSN8 = target: T13, SNTG1, Q9NSN8
ARHGEF11, O15085 = target: T14, ARHGEF11, O15085
Inadl_3, Q8NI35 = target: Inadl_3, Q8NI35
Inadl_3, Q8NI35, sequence (Q8NI35 359-469): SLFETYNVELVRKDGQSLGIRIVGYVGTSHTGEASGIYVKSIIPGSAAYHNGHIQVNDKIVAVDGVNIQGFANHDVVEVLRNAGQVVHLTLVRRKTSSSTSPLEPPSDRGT

HTRA2, O43464, sequence (O43464 355-458): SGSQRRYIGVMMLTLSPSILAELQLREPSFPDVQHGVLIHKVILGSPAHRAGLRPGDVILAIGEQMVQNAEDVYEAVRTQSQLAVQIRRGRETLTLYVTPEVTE
ARHGEF12, Q9NZN5-2, sequence (Q9NZN5 other isoform, or with tags, fused parts or gaps): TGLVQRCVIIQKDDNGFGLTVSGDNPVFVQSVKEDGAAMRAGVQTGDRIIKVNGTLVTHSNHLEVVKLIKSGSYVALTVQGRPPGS
DLG5_1, Q8TDM6, sequence (Q8TDM6 617-713): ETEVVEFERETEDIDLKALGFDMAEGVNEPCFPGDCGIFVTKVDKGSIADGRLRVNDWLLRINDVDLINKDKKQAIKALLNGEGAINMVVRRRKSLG
LIMK2, P53671, sequence (P53671 143-248): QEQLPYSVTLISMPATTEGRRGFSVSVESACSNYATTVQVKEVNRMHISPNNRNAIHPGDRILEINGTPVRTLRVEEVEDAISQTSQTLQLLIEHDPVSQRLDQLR
SCRIB_1, Q14160, sequence (Q14160 718-814): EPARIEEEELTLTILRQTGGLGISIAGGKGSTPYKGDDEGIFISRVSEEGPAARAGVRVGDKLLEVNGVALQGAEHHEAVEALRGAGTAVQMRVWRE
GRIP2_3, Q9C0E4, sequence (Q9C0E4 238-339): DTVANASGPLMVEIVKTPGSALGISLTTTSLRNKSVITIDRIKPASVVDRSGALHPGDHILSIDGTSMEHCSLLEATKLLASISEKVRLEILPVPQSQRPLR
TJP1_2, Q07157, sequence (Q07157 181-274): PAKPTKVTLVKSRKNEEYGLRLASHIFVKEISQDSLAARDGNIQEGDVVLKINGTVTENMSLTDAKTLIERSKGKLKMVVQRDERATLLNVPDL
MAST2, Q6P0Q8, sequence (Q6P0Q8 1099-1202): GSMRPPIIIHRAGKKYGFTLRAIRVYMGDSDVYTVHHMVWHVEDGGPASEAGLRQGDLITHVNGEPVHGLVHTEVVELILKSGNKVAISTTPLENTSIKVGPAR

Row | Binder | pKd (DVL3, Q92997) | pKd (HTRA2, O43464) | pKd (NHERF3_3, Q5T2W1) | pKd (HTRA4, P83105) | pKd (TJP1_2, Q07157) | pKd (GRIP2_3, Q9C0E4) | pKd (APBA1_2, Q02410) | pKd (LNX2_2, Q8N448) | pKd (ARHGEF12, Q9NZN5-2) | pKd (APBA2_1, Q99767) | pKd (LIMK2, P53671) | pKd (GRIP1_7, Q9Y3R0) | pKd (TIAM2, Q8IVF5) | pKd (MPDZ_12, O75970) | pKd (MPP2, Q14168) | pKd (SCRIB_1, Q14160) | pKd (DLG5_1, Q8TDM6) | pKd (GOPC, Q9HD26) | pKd (MAST2, Q6P0Q8) | pKd (MPP7, Q5T2T1) | other results
1 | QSARLWETSI [ADAM22, Q9P0K1] | below the threshold | below the threshold | below the threshold | 3.61 | below the threshold | below the threshold | below the threshold | below the threshold | 4.73 | below the threshold | below the threshold | below the threshold | 3.97 | below the threshold | below the threshold | 5.23 | below the threshold | 4.42 | 5.62 | 4.22 | pKd (PDZD7_3, Q9H5P4): 5.16; pKd (SNTG1, Q9NSN8): 4.82; pKd (ARHGEF11, O15085): 3.79; pKd (Inadl_3, Q8NI35): 4.92
2 | SAAKVLTSMC [GHRHR, Q02643] | below the threshold | below the threshold | below the threshold | below the threshold | below the threshold | below the threshold | below the threshold | below the threshold | 4.65 | below the threshold | below the threshold | below the threshold | below the threshold | below the threshold | below the threshold | 4.58 | below the threshold | below the threshold | 4.15 | below the threshold | pKd (PDZD7_3, Q9H5P4): 4.7; pKd (SNTG1, Q9NSN8): below the threshold; pKd (ARHGEF11, O15085): 4.21; pKd (Inadl_3, Q8NI35): below the threshold
3 | MLSKQSESAI [FLVCR1, Q9Y5Y0] | below the threshold | below the threshold | below the threshold | 3.91 | below the threshold | below the threshold | below the threshold | below the threshold | 3.68 | below the threshold | below the threshold | below the threshold | below the threshold | below the threshold | below the threshold | 3.91 | below the threshold | below the threshold | 4.58 | below the threshold | pKd (PDZD7_3, Q9H5P4): 3.78; pKd (SNTG1, Q9NSN8): 3.93; pKd (ARHGEF11, O15085): below the threshold; pKd (Inadl_3, Q8NI35): below the threshold
4 | TLPRKRMSSI [GPRC6A, Q5T6X5] | below the threshold | below the threshold | below the threshold | below the threshold | below the threshold | below the threshold | below the threshold | below the threshold | 3.54 | below the threshold | below the threshold | below the threshold | 4.07 | below the threshold | below the threshold | below the threshold | below the threshold | below the threshold | 4.82 | below the threshold | pKd (PDZD7_3, Q9H5P4): below the threshold; pKd (SNTG1, Q9NSN8): below the threshold; pKd (ARHGEF11, O15085): below the threshold; pKd (Inadl_3, Q8NI35): below the threshold
5 | TASPAKETSF [SLC2A7, Q6PXP3] | below the threshold | below the threshold | below the threshold | below the threshold | below the threshold | below the threshold | below the threshold | below the threshold | 3.59 | below the threshold | below the threshold | below the threshold | 3.63 | below the threshold | below the threshold | 4.56 | below the threshold | below the threshold | 5.21 | below the threshold | pKd (PDZD7_3, Q9H5P4): below the threshold; pKd (SNTG1, Q9NSN8): 3.56; pKd (ARHGEF11, O15085): below the threshold; pKd (Inadl_3, Q8NI35): below the threshold
6 | QSPANIYYKV [EFNB1, P52799] | below the threshold | 4.18 | below the threshold | below the threshold | below the threshold | below the threshold | below the threshold | 4.25 | below the threshold | below the threshold | below the threshold | below the threshold | 4.1 | below the threshold | below the threshold | below the threshold | below the threshold | below the threshold | 4.56 | 3.61 | pKd (PDZD7_3, Q9H5P4): below the threshold; pKd (SNTG1, Q9NSN8): below the threshold; pKd (ARHGEF11, O15085): below the threshold; pKd (Inadl_3, Q8NI35): below the threshold
